Numbering of substitutions follows the chain as printed. Numbers in names are those of the source. Where “and” joins values, the source holds several entries; their conditions need not be identical. Equal values may be shown once.
B1: ^35S-labelled OmpC (natural protein)
chain: MKVKVLSLLVPALLVAGAANAAEVYNKDGNKLDLYGKVDGLHYFSDNKDVDGDQTYMRLGFKGETQVTDQLTGYGQWEYQIQGNSAENENNSWTRVAFAGLKFQDVGSFDYGRNYGVVYDVTSWTDVLPEFGGDTYGSDNFMQQRGNGFATYRNTDFFGLVDGLNFAVQYQGKNGNPSGEGFTSGVTNNGRDALRQNGDGVGGSITYDYEGFGIGGAISSSKRTDAQNTAAYIGNGDRAETYTGGLKYDANNIYLAAQYTQTYNATRVGSLGWANKAQNFEAVAQYQFDFGLRPSLAYLQSKGKNLGRGYDDEDILKYVDVGATYYFNKNMSTYVDYKINLLDDNQFTRDAGINTDNIVALGLVYQF
modifications: ^35S-methionine label
B2: ^35S-labelled OmpC(Y286A) (natural protein)
chain: B1 chain with Y286A
modifications: ^35S-methionine label
B3: FLAG-OmpC (natural protein)
chain: AEVYNKDGNKLDLYGKVDGLHYFSDNKDVDGDQTYMRLGFKGETQVTDQLTGYGQWEYQIQGNSAENENNSWTRVAFAGLKFQDVGSFDYGRNYGVVYDVTSWTDVLPEFGGDTYGSDNFMQQRGNGFATYRNTDFFGLVDGLNFAVQYQGKNGNPSGEGFTSGVTNNGRDALRQNGDGVGGSITYDYEGFGIGGAISSSKRTDAQNTAAYIGNGDRAETYTGGLKYDANNIYLAAQYTQTYNATRVGSLGWANKAQNFEAVAQYQFDFGLRPSLAYLQSKGKNLGRGYDDEDILKYVDVGATYYFNKNMSTYVDYKINLLDDNQFTRDAGINTDNIVALGLVYQF
B4: OmpC-His6 (natural protein)
chain: B3 chain
B5: OmpF (natural protein)
chain: AEIYNKDGNKVDLYGKAVGLHYFSKGNGENSYGGNGDMTYARLGFKGETQINSDLTGYGQWEYNFQGNNSEGADAQTGNKTRLAFAGLKYADVGSFDYGRNYGVVYDALGYTDMLPEFGGDTAYSDDFFVGRVGGVATYRNSNFFGLVDGLNFAVQYLGKNERDTARRSNGDGVGGSISYEYEGFGIVGAYGAADRTNLQEAQPLGNGKKAEQWATGLKYDANNIYLAANYGETRNATPITNKFTNTSGFANKTQDVLLVAQYQFDFGLRPSIAYTKSKAKDVEGIGDVDLVNYFEVGATYYFNKNMSTYVDYIINQIDSDNKLGVGSDDTVAVGIVYQF

Key:
native gel or EMSA = biological target: the molecule itself; assay: native gel or EMSA
[1] = biological target: the molecule itself; assay: SDS-PAGE of samples folded in detergent micelles

| Protein | stoichiometry N (native gel or EMSA) | stoichiometry N [1] |
| --- | --- | --- |
| B1 | 3 | – |
| B2 | 3 | – |
| B3 | 2 and 3 | – |
| B4 | – | 3 |
| B5 | 3 and 2 | – |

— publication doi:10.1101/2021.10.29.466387 (bioRxiv, 2021)
